Results published in the DeepSol protein solubility set.

assay: soluble on expression in E. coli; label from the status in PepcDB or PDB records

Soluble on expression in E. coli, not soluble:
MGSDKIHHHHHHMKTIKGPAIFLAQFMSDVAPFNNLKNICDWAASLGYKGVQIPSWDVRCIDLQKAAESKTYCDEIKAVVHAAGLEITELTSHLQGQLVASHAAYDAAFDVFAPAAIHNNPKARAEWATQQLMYAAKASQNLGLTAHATFSGALLWHTMYPWPQRKAGSVEEGFTELAKRWLPILNAFDQAGVDLCYEIHPGEDLHDGITFERFLKATDNHSRAHILYDPSHFVLQQLNYLDYIDIYHEHIKMFHVKDAEFNPSGRAGVYGGYQDWIDRPGRFRSLGDGQVNFKAIFSKLTQYDFPGWAVLEWECCLKHPEDGAREGAAFIKNHIIRVADKAFDDFAG
MGSDKIHHHHHHMKTKLILVGGFLGVGKTTLLGEAARRLSQTGRKVGLITNDQASELVDTVYLEQTGTEVSEVSGSCFCCNFPGFMEAIDHVNAHKPADIIIAEPVGSCTDLSATILQPLKEKFADKLSVAPLSVLVDPRQLTDILDGRTAGLHPSAAYILRKQLEEADLIVINKTDLLTPLAVEILKKRTAEEWPLASVYAISAKTGEGLAAWLHEAQQRSGAGTHLAEVDYDTYAEGEAVLGWLNATIELQSQGADWDTLGRNLLNSLRSRFGSLNAAIGHVKLLIATDQGYVIGNITGAKDSLDIRESAGTGRKAQLTLNARVQMEPDLLEEIVKEEIAKVQADKITATIAVLKCLKPGRPNPTYRYGTIVG
MGSDKIHHHHHHMKTMRKILEIDEERCNGCGLCVLDCAEGAIAIVDGKAKIVSDSFCDGLGACIGSCPQDALHIIEREAVPFDEEAAMEHVRSQGGTPEANHGHGHGAGTPHRHGQSAEHGGHGRIPGHGGCPGAAMRRFDSAESPAFAVAEGTVKGPGHWPLKIRLVPPTAPFLKGADVLVAADCAAAASPIFHSHFAAGKVVLIGCPKFDDTEAYAERLADILRVSGIASLTVLRMEVPCCRGLSAAAEKARVLSGTSLVLKEVIMTCAGGPAAPAPLSSL
MGSDKIHHHHHHMKTYMISLHGAYENENFGDELLIAIQAKWINDEGYDVCLPFASKVYREQIPSLDKEGSRGLEESEKLIYTGGGYFGEPNHKTFKWGINFFRKKHHIPAKIFKKNNKKYLICGVGAGPITNPITRYTVVKICNFAEKVVVRDTTSYDYLIKYGVIPEKIQVGADVVLSLTIHDLPKGSIEKAKKTLNKDNKNFYLGIHIGVSPDDENYKTNVKAAMESLANVIKRNSVVPVLIADKRNATSTQEKAIEYMSSLLDEEPIVYRHSNIWETCAFLSSLDGVVTTKLHVGITAYTLGTRTFGIAAHQKTRRFYNQIKKENYFYELKEVDNGIESSLELFIKDRYWDEETLQAKKELNERALLCKREMLQFLES
MGSDKIHHHHHHMKTYTSNHIVFFSPTHTSAKIARAIGESIGMGRRIEIDLTTDENSSPIEIKDSITIIAVPVYAGRVAPIALQRLRRLKGNNAPAILVAVYGNRDYEDALVELRDETIQLGFTPLAAGAFIGEHSYSRPNMPIAEGRPDVTDLQIAEQFGKDCLTKLEKDETLSDFYLKGNIPYRFVGPSTPAAPVCTEECFACGECIEVCPTHAIALSDEGKIETEITKCIKCCACVKECPNGARVFDTPYTPMLHQKCAARREPELFI
MGSDKIHHHHHHMKVGVALSGGVDSAVALYLLLKEGHEVKAFHMKTKEDEFFIKKEIKKKVCCSPSDTADAMRIAHFLGVEIEIVDVKEIFREKVIEPFKRDLLKGLTPNPCAHCNRFVKFGYLMDYVLNQGFDAFASGHYARIEFSEKYGRKVIKKGVDLKKDQSYFLARIEPWRIERLIFPNGIYTKEEIRKIAEEAGIHVAKKQESQDVCFIPDGSIENFLKDEGITLKDGDIITPEGEVVGRHFGYPLYTIGQRKGFKIEKFGRRYYVRGKIPEKNVVVVSDLEDVFFSGLIAEDPVWHVEVPEEFRCVCRVRKKSEEAPAVVKVKDNEVEVSFEKKVFAVTPGQIAAFYDGDTLLGGAIIKEGIR
MGSDKIHHHHHHMKVLELKNVSVRYKTGEKTVNAVENVSFHLEKGETLGLVGESGCGKSTLGFSIMRLLPKGTKIDGSIKIEGIDISSLSDEEMRQIRGSKVAMIFQDPMTSLNPILRIEDHFVEMILTHRPELSKEDARELAAKALEDVGINRNRLKDYPFQFSGGMRQRVMIALSIVLNPAVLIADEPTTSLDVIVQAQIMELLEKLTKEHRTAMILITHDMGLVAEAADRIGVMYAGHLVELASKERIFTNPLHPYTVGLLRSIPNTDVNDKELRYIPGSPPDLSNPPEGCRFAPRCEKAMKICWEKEPPEFEIDGTRVKCWLYGGDQNGTD
MGSDKIHHHHHHMKVLHVNAGLENGGGLSHIVNLLTEAKRENKDFDLLTLADGPVAAAAREHGINTYVLGAKSRYNLASLKKLIKFINDGHYDIVHTHGARANLFLSLIHKRISAVWCVTVHSNPYLDFEGRGFLGKVFTKFNLRALKKADCIFAVTKRFANLLVNQTQLDKNKVHVIYNGIFFHNDSEIPAKYEHTYFNVINVARTEKVKGQELLLKAVKKLNDQHIRLHIAGDGSQLEPLKALTRQLNMAPQVTFHGFMTHHQLSGLYKRIDLAVLTSYSESFPLVLLEATDNLIPILSTDVGDIHKMIPGPKYGFIAKTGDIDSIAKQLELAVNKTTKQLREMAYTEKRYAEEHFSVKNQLADIEKVYSTLI
MGSDKIHHHHHHMKVLIVGGSGGIGQAMVKQVQETYPDATVHATYRHHLPNDRQNNIQWHALDVTNEAEIKQLSEQLTELDWLINCVGILHTQDKGPEKSLQSLDIDFFQHNLTLNTLPSVMLAKHFCHALKQSDSARFAVISAKVGSITDNRLGGWYSYRASKAALNMFLKTLAIEWQRNMKHCVVLSLHPGTTDTPLSQPFQQSVPKGKLFTPEYVANCLLPIIANATPAQTGCFFAYDGTELPW
MGSDKIHHHHHHMKVLLINGSPNQYGCTYTALNEITKVLSKHDIKTEILYLGKETIPGCISCASCFETGKCIRNDKVNELIEDLDNIDGIIIGSPVYFSSATGQLTSFLDRLFFIAGSRMATKLGASVVSCRRGGASATFDQLNKYFSISNMPIVSSQYWNQVHGFTPEDVMKDEEGLQTMRTLGENMAWLLKCISAGKKAGIKEPQYEETIMTNFIK
MGSDKIHHHHHHMKVRIRDFIETTEGLYFAVNTYAHPKNKFFAFLRYVPYEFVDFKIEDNNIREINGRKYIKMAESKIAYKFLEEKFSKYLYYDETINVLMHAIPKEDVKRILRPKERLNEIINEENNLNELEEKCRKLALILEDYGVPIKSMGVSGSLLLKLNNKNSDIDFVIYGKDMHKKAREALKQAFEDNKLKPLSDDFWKIAYKKRIKDKTLTYEEFVFYEKRKYNRGIVDNTMFDLLFTREWDEITEKYGDKRYKNLGFAKIEGRVLNDDFAFDNPAVYKIECYNDEDIKEVVSFTHTYAGQCFNGEEIVARGKLEEVIDKSGERYKRIVVGTTREAFNEYIKIKR
MGSDKIHHHHHHMKVSDIMTPDPITYHVPSSINEVIKVLIKYNVTGVPITDQSGHYAGFVSRRDVFANPRETQTAMVMRRSKAVYEDDEVRTAALEMLAQKKRHLTVVDRDGHVKGILTPQNFMKTIKENYGNVKVKEVMKETSVPIWYKTPLPAILTVMNVSGIFSFPVIDDNGTFVGLLVDRDIFDRIDLKFDSILSEMGIADDEDPWSWTGLRNVFKYVVERADIKLPKISADEIMVKNPTVVYANDKLSTAAELMIKYNYNQLPVLDDSHGIYGMLYDIEMLGVFQ
MGSDKIHHHHHHMKVSGGEVPPFFKEGFFFTSEELTHLINVCSSTSAIISVLKDSKYRRSLVLYLKRPLSKDALLLIQTLLTTLEREDLSFGVKELEYMAYHDPLTGLPNRRYFFELGNRYLDLAKREGKKVFVLFVDLAGFKAINDTYGHLSGDEVLKTVSKRILDRVRRSDVVARYGGDEFTILLYDMKEEYLKSLLERILSTFREPVRVENKHLSVTPNIGVARFPEDGENLEELLKVADMRMYKAKEMKVPYFSLS
MGSDKIHHHHHHMKYEIVLKGSYALLKVFLSTGESVVVEPGAMVYMKGPIEVKTSATGGVWKALKRAILGGENFFMNTYISRGESEIGLAPQLPGDIDVIPLKDILYVQSTSFLACDPSVEMDVSFGGLKSFFSGEGIFLLKFIGHGDVAVSSFGGIKSVELQPGEEFTVDTGHVVAFDGTVKWNVRTFGGLKSTLFGGEGLVCTFTGPGRVYIQTRNYPAFVEWIKSLVPRQTGSR
MGSDKIHHHHHHMLDLLNLPGIKPVDMRHESKGLVIVAEPETVEVPLCGGCNTLMHKHGTRKNKFMDTPLYMEPVRLEVQRPRFRCESCGKMSMPELSFLDDKRRATKRLVDVIRQQCLGTTFHALAEQTGVAVNTVKNIAHDLINELSQTVRYETPVIMGIDEVNLAGGYRCVITNLATNNVFDMLEHRTQEHLKPFFKALPDADKVEWVCTDMWRPFKRSFAQYLPNAKLVIDKFHVVKMASEALEVERKNYQAQLSKEDRIYVKKSIRWLTLKRPGNLTPAEQKALEVVKQAIPELAVAYDFKEAFFCIYDELDKQNAQNAFEAWENSLPDQGLVAFKKLAKTVHNHYDDIFAYWDAPFSITNGYTEGLNGLIKMSNRLGRGYGYPIIRAKTLYSKEARKVGSGIRAGHGKVEYGPHIPTLLKQAESGELD
MGSDKIHHHHHHMLDVHKDIKKIFHEEQVLAEAAARYGFSKDQVRFLADAENYVYECMKDNQPYILKITHTIRRSSDYMMGEMEWLRHLAIGGISVAKPLPSLNGKDVEAVPDGNGGSFLLRVYEKAPGQKVDESDWNETLFYELGRYTGSMHSLTKSYKLSNPAFKRAAWAEEEQLKLRKYVPEDQIKVFQQADSLMNELRRLPKSQDNYGLVHADLHHGNFNWDHGKITAFDFDDIGYNWFVNDISILLYNVLWYPVVPYDDKAAFTEEFMTHFMKGYWEENELDPAWLMIIPDFLRLRHMLIYGLLHQMFDLNTIGEEEKEMLAGFRRDIENGTPITAFDFSALV
MGSDKIHHHHHHMLELTPNLNMNSKKALYVQLYEYIKKEIKDGTIVPFTKLPAKRKLAIHLQVSKNTVEAAYEQLLAEGYIESISRKGYFVCKIEQMVHVEDSEERIEEVLFQEKSYKFDFTQTGIDTNAFPFNMYRKIVNEVWQPYNNELLFLGHPQGEASLREEITNYLYESRGVRCSASQIVLGAGTQILVKLLFQLLKGSNYAVENPGYHRKMVVFEQGEEKVQMLSLDRDGICMADLENSDANVVFVTPSHQFPYGMIMPITRRTQLLQWAKKAKDRYIIEDDYDSEFRYSGRPIPALQGLDTEGKVIYMGTLSKALLPSLRMSYIVLPKNLIIKYQKEYLFYTQSVSRMDQEVIRKFLNEGYWEKHIHKMRVVYRKKRDRLVFEIEKYFSNRVEVIGEDSGLHILLQVHNGMREEELIQEAAKYSIKVYPVSTYYKDGTAPENVVLLGFAILSEEEIAKAIQLLNTAWFRKKVKKHPHT
MGSDKIHHHHHHMLFNQLQNETNLTNSEKEIARYLLNQNLDLATLSAQKLGELTFTSKPTVLRFIKKLGYKKFNEFCYDLISEQERIKKSRDLLKHININKDSNLSDLLIKVPNLYNQAINRTNSLMDQENLNLIVKKLNTLDYIDFYGSGITEGLAQIGSFKFSSIGKFGGVYSNVNEHYLTSIHGINKHGAIIISFTGGNKAMINAAKDLKKLNIYSLGIGGLENEELKNNCSSYLTIPFENLSLGMESIVPSVAINYVIDILFTSLTIKNLSQNVTNALKVKNLRK
